3 molecules from patent US20150139990A1 (DAINIPPON SUMITOMO PHARMA, published 2015) can be followed below.

One assay has as its target T1, human CD81 mutant V135A (human, UniProt P60033 1-236, limits assumed).
T1 construct: as m30; not shown: C-terminal V5 and 6xHis tags
T1 sequence: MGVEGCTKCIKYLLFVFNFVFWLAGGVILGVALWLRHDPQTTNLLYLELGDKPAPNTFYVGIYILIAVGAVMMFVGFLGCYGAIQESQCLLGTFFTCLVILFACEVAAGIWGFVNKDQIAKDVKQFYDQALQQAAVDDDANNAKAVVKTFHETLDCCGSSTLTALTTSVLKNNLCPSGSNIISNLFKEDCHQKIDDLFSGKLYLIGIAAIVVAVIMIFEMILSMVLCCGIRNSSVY
The assay is described as follows: ELISA. For orientation: In an ELISA, binding on a coated surface is turned into a signal by an enzyme label.

The next assay addresses T2, human CD81 mutant A164T (human, UniProt P60033 1-236, limits assumed).
T2 construct: as m30; not shown: C-terminal V5 and 6xHis tags
T2 sequence: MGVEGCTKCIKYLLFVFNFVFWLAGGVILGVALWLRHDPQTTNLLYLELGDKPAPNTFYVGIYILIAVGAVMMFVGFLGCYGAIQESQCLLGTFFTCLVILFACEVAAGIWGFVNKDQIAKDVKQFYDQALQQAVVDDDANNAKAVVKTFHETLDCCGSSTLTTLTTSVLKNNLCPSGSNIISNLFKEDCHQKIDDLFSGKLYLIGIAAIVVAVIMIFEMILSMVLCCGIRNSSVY
The experiment in a line: ELISA.

The target of a further assay is T3, human CD81 mutant L165A (human, UniProt P60033 1-236, limits assumed).
T3 construct: as m30; not shown: C-terminal V5 and 6xHis tags
T3 sequence: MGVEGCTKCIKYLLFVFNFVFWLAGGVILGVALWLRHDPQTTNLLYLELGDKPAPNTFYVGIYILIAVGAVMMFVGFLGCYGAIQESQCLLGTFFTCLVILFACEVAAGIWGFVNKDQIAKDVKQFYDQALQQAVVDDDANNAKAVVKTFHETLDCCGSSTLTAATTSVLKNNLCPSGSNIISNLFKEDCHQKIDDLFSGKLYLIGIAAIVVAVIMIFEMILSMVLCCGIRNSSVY
The experiment in a line: ELISA.

In a further assay the target is T4, human CD81 mutant V169A (human, UniProt P60033 1-236, limits assumed).
T4 construct: as m30; not shown: C-terminal V5 and 6xHis tags
T4 sequence: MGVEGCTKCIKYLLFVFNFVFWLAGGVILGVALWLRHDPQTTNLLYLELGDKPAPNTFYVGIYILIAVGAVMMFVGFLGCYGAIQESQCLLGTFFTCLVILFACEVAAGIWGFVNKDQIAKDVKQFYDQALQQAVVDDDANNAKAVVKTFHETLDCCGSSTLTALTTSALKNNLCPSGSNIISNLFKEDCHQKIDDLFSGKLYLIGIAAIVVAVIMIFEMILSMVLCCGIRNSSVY
The assay is described as follows: ELISA.

The target of a further assay is T5, human CD81 mutant A164V (human, UniProt P60033 1-236, limits assumed).
T5 construct: as m30; not shown: C-terminal V5 and 6xHis tags
T5 sequence: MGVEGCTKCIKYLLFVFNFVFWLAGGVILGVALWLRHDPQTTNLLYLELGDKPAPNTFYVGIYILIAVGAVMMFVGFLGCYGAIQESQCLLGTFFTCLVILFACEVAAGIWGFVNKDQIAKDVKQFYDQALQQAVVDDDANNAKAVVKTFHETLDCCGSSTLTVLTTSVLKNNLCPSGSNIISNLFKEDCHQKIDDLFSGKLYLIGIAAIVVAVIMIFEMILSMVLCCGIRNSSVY
The experiment in a line: ELISA.

A further assay has as its target T6, human CD81 mutant S168T (human, UniProt P60033 1-236, limits assumed).
T6 construct: as m30; not shown: C-terminal V5 and 6xHis tags
T6 sequence: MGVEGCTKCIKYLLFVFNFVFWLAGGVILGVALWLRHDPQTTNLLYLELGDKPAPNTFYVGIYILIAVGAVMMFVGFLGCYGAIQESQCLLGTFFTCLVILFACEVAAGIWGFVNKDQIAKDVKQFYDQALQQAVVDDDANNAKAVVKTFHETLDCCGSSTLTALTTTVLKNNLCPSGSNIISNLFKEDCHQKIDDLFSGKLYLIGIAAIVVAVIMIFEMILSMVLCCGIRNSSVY
The experiment in a line: ELISA.

Another assay deals with T7, human CD81 mutant V169L (human, UniProt P60033 1-236, limits assumed).
T7 construct: as m30; not shown: C-terminal V5 and 6xHis tags
T7 sequence: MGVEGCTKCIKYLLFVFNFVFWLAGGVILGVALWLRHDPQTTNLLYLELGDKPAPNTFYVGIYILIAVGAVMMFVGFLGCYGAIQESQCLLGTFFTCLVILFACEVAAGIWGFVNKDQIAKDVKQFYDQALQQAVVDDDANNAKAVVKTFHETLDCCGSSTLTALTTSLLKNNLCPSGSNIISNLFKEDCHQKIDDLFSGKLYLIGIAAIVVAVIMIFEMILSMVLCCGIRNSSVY
The experiment in a line: ELISA.

Assay [1] deals with T8, human CD81 on CD81-expressing cells (Jurkat E6.1, human PBMC, Ramos) (human, UniProt P60033 1-236).
T8 sequence: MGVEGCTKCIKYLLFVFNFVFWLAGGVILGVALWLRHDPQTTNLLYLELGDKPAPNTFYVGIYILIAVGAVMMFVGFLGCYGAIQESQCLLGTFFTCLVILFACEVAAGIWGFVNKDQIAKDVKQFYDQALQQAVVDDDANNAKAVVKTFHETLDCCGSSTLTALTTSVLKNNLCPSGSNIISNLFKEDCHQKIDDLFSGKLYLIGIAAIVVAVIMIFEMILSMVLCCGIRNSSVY
The experiment in a line: cell-based or functional assay.

In the next assay the target is T9, human CD81 mutant I194A (human, UniProt P60033 1-236, limits assumed).
T9 construct: as m30; not shown: C-terminal V5 and 6xHis tags
T9 sequence: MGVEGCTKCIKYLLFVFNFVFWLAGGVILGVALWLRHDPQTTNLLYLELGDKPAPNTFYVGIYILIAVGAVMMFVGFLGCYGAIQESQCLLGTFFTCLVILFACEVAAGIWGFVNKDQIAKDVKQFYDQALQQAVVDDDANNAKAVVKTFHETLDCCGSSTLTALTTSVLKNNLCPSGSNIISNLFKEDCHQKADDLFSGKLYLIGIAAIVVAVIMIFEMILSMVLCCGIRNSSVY
The experiment in a line: ELISA.

In the next assay the target is T10, human CD81 mutant D137A (human, UniProt P60033 1-236, limits assumed).
T10 construct: as m30; not shown: C-terminal V5 and 6xHis tags
T10 sequence: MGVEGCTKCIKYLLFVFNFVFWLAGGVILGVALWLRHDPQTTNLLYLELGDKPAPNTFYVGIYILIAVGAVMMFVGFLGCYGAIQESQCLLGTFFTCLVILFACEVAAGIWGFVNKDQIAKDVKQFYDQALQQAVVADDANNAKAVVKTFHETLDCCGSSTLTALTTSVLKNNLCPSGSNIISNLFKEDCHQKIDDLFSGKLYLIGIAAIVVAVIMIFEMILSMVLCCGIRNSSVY
The assay is described as follows: ELISA.

In another assay the target is T11, human CD81 mutant D137E (human, UniProt P60033 1-236, limits assumed).
T11 construct: as m30; not shown: C-terminal V5 and 6xHis tags
T11 sequence: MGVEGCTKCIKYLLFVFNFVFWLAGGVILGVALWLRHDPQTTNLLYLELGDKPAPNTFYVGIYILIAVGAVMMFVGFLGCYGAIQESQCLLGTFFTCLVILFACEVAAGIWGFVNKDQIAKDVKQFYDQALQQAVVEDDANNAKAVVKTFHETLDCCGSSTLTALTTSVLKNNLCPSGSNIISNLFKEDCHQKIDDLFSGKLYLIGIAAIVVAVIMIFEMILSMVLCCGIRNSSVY
The experiment in a line: ELISA.

B1: 002-A07 S115N (antibody, human IgG4 S228P, lambda, V domains shown)
VH: EVQLLESGGGLVQPGGSLRLSCAASGFTFSSNYMSWVRQAPGKGLEWVSYISSSSTYTDYADSVKGRFTISRDNSKNTLYLQMNSLRAEDTAVYYCARYSYGRDNFDYWGQGTLVTVSS
VL: QSVLTQPPSASGTPGQRVTISCTGSTSNIGAGYDTHWYQQLPGTAPKLLIYGNSNRPSGVPDRFSGSKSGTSASLAISGLRSEDEADYYCQSYDTNLNVWVFGGGTKLTVLG
notes: IgG4 S228P; glycosylation site mutant of 002-A07 VL
With B1, the relative binding affinity with human CD81 mutant V135A, with human CD81 mutant A164T, with human CD81 mutant L165A, with human CD81 mutant V169A, in the assay with human CD81 mutant A164V and with human CD81 mutant S168T was less than 20% each time. Further, the relative binding affinity with human CD81 mutant V169L is less than 20%. In assay [1], the “Jurkat chemotaxis (% of control IgG4) at 0.001 µg/mL” value turned out to be 79%. Further, the “Jurkat chemotaxis (% of control IgG4) at 0.01 µg/mL” value in assay [1] was 69%. Further, the “Jurkat chemotaxis (% of control IgG4) at 0.1 µg/mL” value in assay [1] is -4%. The “Jurkat chemotaxis (% of control IgG4) at 1 µg/mL” value in assay [1] is -11%. In addition, the “Jurkat chemotaxis (% of control IgG4) at 10 µg/mL” value in assay [1] was -9%.

B2: 002-F01 (antibody, human IgG4 S228P, lambda, V domains shown)
VH: EVQLLESGGGLVQPGGSLRLSCAASGFTFSSNYMSWVRQAPGKGLEWVSYISSSSTYTDYADSVKGRFTISRDNSKNTLYLQMNSLRAEDTAVYYCARYSYGRDNFDYWGQGTLVTVSS
VL: QSVLTQPPSASGTPGQRVTISCTGSTSNIGAGYDTHWYQQLPGTAPKLLIYGNSNRPSGVPDRFSGSKSGTSASLAISGLRSEDEADYYCQSYDTNLSAWVFGGGTKLTVLG
notes: IgG4 S228P
On to B2, for which the relative binding affinity with human CD81 mutant V135A, in the assay with human CD81 mutant A164T, with human CD81 mutant L165A, in the assay with human CD81 mutant V169A, with human CD81 mutant I194A and with human CD81 mutant A164V was less than 20% throughout. The relative binding affinity in the assay with human CD81 mutant S168T and with human CD81 mutant V169L was less than 20% each time. Moreover, the “Jurkat chemotaxis (% of control IgG4) at 0.001 µg/mL” value in [1] is 89%. Further, the “Jurkat chemotaxis (% of control IgG4) at 0.01 µg/mL” value in [1] came out at 87%. Moreover, in assay [1], the “Jurkat chemotaxis (% of control IgG4) at 0.1 µg/mL” value came to 35%. Moreover, the “Jurkat chemotaxis (% of control IgG4) at 1 µg/mL” value in assay [1] is 4%. For the same molecule, the “Jurkat chemotaxis (% of control IgG4) at 10 µg/mL” value in [1] came out at 9%.

B3: 002-C02 (antibody, human IgG4 S228P, lambda, V domains shown)
VH: EVQLLESGGGLVQPGGSLRLSCAASGFTFSSNYMSWVRQAPGKGLEWVSYISSSSSYTDYADTVKGRFTISRDNSKNTLYLQMNSLRAEDTAVYYCASYSYGRDSFDYWGQGTLVTVSS
VL: QSVLTQPPSASGTPGQRVTISCTGSTSNIGAGYDTHWYQQLPGTAPKLLIYGNSNRPSGVPDRFSGSKSGTSASLAISGLRTEDEADYYCQSYDTNLSVWVFGGGTKLTVLG
notes: IgG4 S228P
As to B3, the relative binding affinity in the assay with human CD81 mutant V135A, with human CD81 mutant D137A, with human CD81 mutant A164T, with human CD81 mutant L165A, with human CD81 mutant V169A and with human CD81 mutant D137E was less than 20% throughout. Further, the relative binding affinity with human CD81 mutant A164V and in the assay with human CD81 mutant V169L was less than 20% in each case. In assay [1], the “Jurkat chemotaxis (% of control IgG4) at 0.001 µg/mL” value came to 106%. Moreover, the “Jurkat chemotaxis (% of control IgG4) at 0.01 µg/mL” value in assay [1] was 104%. The “Jurkat chemotaxis (% of control IgG4) at 0.1 µg/mL” value in assay [1] turned out to be 31%. In addition, in [1], the “Jurkat chemotaxis (% of control IgG4) at 1 µg/mL” value is -5%. In assay [1], the “Jurkat chemotaxis (% of control IgG4) at 10 µg/mL” value was -4%.
